Experimental findings from the Immune Epitope Database (IEDB) are described below.

The target in experiment [1] is HLA-B*57:01. Description: IEDB peptide-MHC binding, purified MHC/direct/fluorescence; filed as Kd, often an IC50 or EC50 that approximates it; ≥ and ≤ were set here for values at or beyond the usual limits of such assays.
Experiment [2] has as its target HLA-B*58:01. The description is as above.
The target of a further experiment is HLA-C*12:03. Described as above.
The target of a further experiment is HLA-B*15:17. The description is as above.
For experiment [3], the target named is HLA-A*03:01. Described as above.
The next experiment addresses HLA-A*11:01. The experiment is described as above.
Another experiment deals with HLA-B*40:01. The experiment is described as above. As to conditions: source organism: Giardia lamblia ATCC 50803.
For another experiment, the target named is HLA-A*69:01. The description is as above. Particulars: source organism: Giardia lamblia ATCC 50803.
In experiment [4] the target is HLA-B*07:02. Described as above.
The next experiment addresses HLA-B*08:01. The description is as above. As to conditions: source organism: Giardia lamblia ATCC 50803.
In experiment [5] the target is HLA-A*01:01. Described as above.
The target in experiment [6] is HLA-A*02:01. The description is as above.
For another experiment, the target named is HLA-B*27:05. Described as above.
The next experiment has as its target HLA-B*44:02. Described as above.
In experiment [7] the target is HLA-A*26:01. The description is as above. Particulars: source organism: Giardia lamblia ATCC 50803.
Experiment [8] concerns the target HLA-B*15:01. The experiment is described as above.
A further experiment has as its target HLA-A*31:01. Described as above.
Experiment [9] addresses HLA-B*39:01. The description is as above.
For another experiment, the target named is HLA-B*15:42. The experiment in a line: IEDB peptide-MHC binding, purified MHC/competitive/fluorescence; filed as Kd, often an IC50 or EC50 that approximates it; ≥ and ≤ were set here for values at or beyond the usual limits of such assays. As to conditions: source organism: Yellow fever virus.
Another experiment addresses HLA-B*83:01. Described as above. Particulars: source organism: Yellow fever virus.
The target in another experiment is HLA-B*45:06. The experiment is described as above. As to conditions: source organism: Yellow fever virus.
Experiment [10] addresses HLA-B*07:02. Description: IEDB peptide-MHC binding, purified MHC/competitive/fluorescence; ≥ and ≤ were set here for values at or beyond the usual limits of such assays.
In experiment [11] the target is HLA-B*57:01. Description: IEDB peptide-MHC binding, purified MHC/competitive/fluorescence; filed as Kd, often an IC50 or EC50 that approximates it; ≥ and ≤ were set here for values at or beyond the usual limits of such assays. As to conditions: source organism: Cryptosporidium parvum Iowa II.
Experiment [12] addresses HLA-A*03:01. Described as above. As to conditions: source organism: Cryptosporidium parvum Iowa II.
In experiment [13] the target is HLA-B*46:01. The description is as above.
A further experiment deals with HLA-A*02:03. The description is as above. Particulars: source organism: Cryptosporidium parvum Iowa II.
For another experiment, the target named is HLA-B*18:01. The description is as above. As to conditions: source organism: Cryptosporidium parvum Iowa II.
Another experiment deals with HLA-A*02:11. The experiment is described as above. Particulars: source organism: Cryptosporidium parvum Iowa II.
Experiment [14] concerns the target HLA-A*02:01. The description is as above. As to conditions: source organism: Cryptosporidium parvum Iowa II.
The next experiment deals with HLA-B*51:01. Described as above.
The target in experiment [15] is HLA-A*26:01. Described as above. As to conditions: source organism: Cryptosporidium parvum Iowa II.
The target in experiment [16] is HLA-B*15:01. The experiment is described as above. Particulars: source organism: Cryptosporidium parvum Iowa II.
Experiment [17] deals with HLA-B*46:01. The experiment in a line: IEDB peptide-MHC binding, purified MHC/direct/fluorescence; filed as Kd, often an IC50 or EC50 that approximates it; ≥ and ≤ were set here for values at or beyond the usual limits of such assays. As to conditions: source organism: Mammarenavirus lassaense.
The next experiment has as its target HLA-B*48:01. The experiment is described as above. As to conditions: source organism: Mammarenavirus lassaense.
For experiment [18], the target named is HLA-B*57:01. Description: IEDB peptide-MHC binding, purified MHC/competitive/radioactivity; filed as Kd, often an IC50 or EC50 that approximates it; ≥ and ≤ were set here for values at or beyond the usual limits of such assays. As to conditions: source organism: Dengue virus 1 Singapore/S275/1990.
Another experiment addresses HLA-A*23:01. The description is as above. As to conditions: source organism: Dengue virus 1 Singapore/S275/1990.
For experiment [19], the target named is HLA-B*58:01. The description is as above. As to conditions: source organism: Dengue virus 1 Singapore/S275/1990.
Another experiment has as its target HLA-A*24:02. The description is as above. Particulars: source organism: Dengue virus 1 Singapore/S275/1990.
Experiment [20] deals with HLA-A*01:01. Described as above. Particulars: source organism: Dengue virus 1 Singapore/S275/1990.
Experiment [21] deals with HLA-A*26:01. The experiment is described as above. Particulars: source organism: Dengue virus 1 Singapore/S275/1990.
Another experiment has as its target HLA-B*27:03. The experiment in a line: IEDB peptide-MHC binding, purified MHC/competitive/fluorescence; filed as Kd, often an IC50 or EC50 that approximates it; ≥ and ≤ were set here for values at or beyond the usual limits of such assays. As to conditions: source organism: Tetraodon nigroviridis.
The target in experiment [22] is HLA-B*39:01. The description is as above. Particulars: source organism: Tetraodon nigroviridis.
Where [23] appears, read: source organism: Cryptosporidium parvum Iowa II.
Setting [24] is: source organism: Cryptosporidium parvum.
Where [25] appears, read: source organism: Giardia lamblia ATCC 50803.
Where [26] appears, read: source organism: Mycobacterium tuberculosis.
[27] abbreviates: source organism: Mammarenavirus lassaense.
The mark [28] stands for this setting: source organism: Tetraodon nigroviridis.

The Kd is the free concentration of one partner at which half of the binding sites on the other are occupied at equilibrium, for simple one-to-one binding. KSFGRISVL: the Kd with HLA-B*57:01 [1] (setting [23]) is 0.316 µM; with HLA-B*58:01 [2] (setting [24]) it was 0.0176 µM; with HLA-C*12:03 (setting [23]), at most 0.001 µM; with HLA-B*15:17 (setting [24]), 0.0008 µM.

In the case of SHSIPNGLL, the Kd in the experiment with HLA-A*03:01 [3] (setting [25]), with HLA-A*11:01 (setting [25]), in the experiment with HLA-B*58:01 [2] (setting [25]), in the experiment with HLA-B*40:01, in the experiment with HLA-A*69:01 and with HLA-B*07:02 [4] (setting [25]) was at least 20 µM each time. Also, the Kd with HLA-B*08:01, with HLA-A*01:01 [5] (setting [25]), with HLA-A*02:01 [6] (setting [25]), in the experiment with HLA-B*27:05 (setting [25]), with HLA-B*44:02 (setting [25]) and in the experiment with HLA-A*26:01 [7] was at least 20 µM throughout. Moreover, the Kd with HLA-B*15:01 [8] (setting [25]) is at least 20 µM; with HLA-A*31:01 (setting [25]), at least 20 µM; with HLA-B*39:01 [9] (setting [25]), 0.353 µM.

In turn, FRGRGVFEL gave a Kd with HLA-B*39:01 [9] (source organism: Influenza A virus (A/Moscow/10/1999(H3N2))) of 0.0621 µM.

RAYWIHLMM: the equilibrium dissociation constant (Kd) with HLA-B*57:01 [1] (source organism: Mycobacterium tuberculosis str. Haarlem) was 0.165 µM; with HLA-B*58:01 [2] (setting [26]), 0.0957 µM; with HLA-C*12:03 (source organism: Mycobacterium tuberculosis C), 0.002 µM; in the experiment with HLA-B*15:17 (setting [26]) it was 0.0022 µM.

With MVIFFMSPK, the dissociation constant (Kd) in the experiment with HLA-B*15:42, with HLA-B*83:01 and with HLA-B*45:06 was at least 5 µM each time.

A word on the IC50: it is the concentration at which inhibition is half-maximal. A lower IC50 goes with higher potency. Regarding IKRTLAAMP, the IC50 with HLA-B*07:02 [10] (source organism: Zaire ebolavirus) was at least 151 µM.

For the sequence ERTDLFFPV, the dissociation constant Kd was at least 20 µM with HLA-B*57:01 [11]; at least 20 µM with HLA-A*03:01 [12]; at least 20 µM with HLA-B*46:01 [13] (setting [23]); at least 20 µM with HLA-A*02:03; at least 20 µM in the experiment with HLA-B*18:01; 2.82 µM in the experiment with HLA-A*02:11. The dissociation constant (Kd) in the experiment with HLA-A*02:01 [14], in the experiment with HLA-B*51:01 (setting [23]), with HLA-A*26:01 [15] and with HLA-B*15:01 [16] was at least 20 µM each time.

In the experiment with HLA-B*07:02 [10] (source organism: Vaccinia virus), KPPKFRAFR had an IC50 of at least 169 µM.

For IEEVMNIVL, the dissociation constant Kd in the experiment with HLA-B*57:01 [1] (setting [27]), with HLA-A*03:01 [3] (setting [27]), with HLA-B*46:01 [17], in the experiment with HLA-A*11:01 (setting [27]), in the experiment with HLA-B*58:01 [2] (setting [27]) and in the experiment with HLA-B*07:02 [4] (setting [27]) was at least 20 µM in each case. Further, the Kd with HLA-A*01:01 [5] (setting [27]), in the experiment with HLA-A*02:01 [6] (setting [27]), with HLA-B*27:05 (setting [27]), with HLA-B*48:01, with HLA-B*44:02 (setting [27]) and in the experiment with HLA-B*15:01 [8] (setting [27]) was at least 20 µM throughout. For the same sequence, the dissociation constant Kd is at least 20 µM in the experiment with HLA-A*31:01 (setting [27]) and 0.946 µM with HLA-B*39:01 [9] (setting [27]).

On to VTARWLWGF, for which the Kd is 0.0016 µM in the experiment with HLA-B*57:01 [18]; 0.134 µM with HLA-A*23:01; 0.038 µM with HLA-B*58:01 [19]; 0.152 µM in the experiment with HLA-A*24:02; 4 µM with HLA-A*01:01 [20]; 7.07 µM with HLA-A*26:01 [21].

In the experiment with HLA-C*12:03 (source organism: Mycobacterium tuberculosis variant bovis BCG str. Pasteur 1173P2), FLSDYGPQL had a Kd of 0.233 µM.

With NTFKFGVIY, the Kd in the experiment with HLA-C*12:03 (setting [28]) is at most 0.001 µM; in the experiment with HLA-A*01:01 [5] (source organism: Danio rerio) it was 0.52 µM; in the experiment with HLA-B*46:01 [13] (setting [28]), at least 20 µM; with HLA-B*27:03, at least 20 µM; with HLA-B*51:01 (setting [28]), at least 20 µM; with HLA-B*39:01 [22] it was at least 20 µM.
